# From patent US20210032299A1 (Eli Lilly, published 2021)
# Starred links: 1 amine or outer side, 2 acyl side, 3 side chain; linkers in the order of their positions; H or OH if unused. Non-standard residues stand in square brackets, D forms with d. Groups on a side chain read outwards from the residue. No end group written: not given here. *: point of attachment. C20 diacid = O=C(O)CCCCCCCCCCCCCCCCCCC(=O)*; γGlu = O=C(O)[C@H](CCC(=O)[*:2])N[*:1]; αMeF = C[C@](N)(Cc1ccccc1)C(=O)O; 4Pal = N[C@@H](Cc1ccncc1)C(=O)O; αMeL = CC(C)C[C@](C)(N)C(=O)O; AEEA = NCCOCCOCC(=O)O; Aib = CC(C)(N)C(=O)O
# T1: human glucose-dependent insulinotropic peptide receptor (human, UniProt P48546 22-466)
# T1 sequence (looked up): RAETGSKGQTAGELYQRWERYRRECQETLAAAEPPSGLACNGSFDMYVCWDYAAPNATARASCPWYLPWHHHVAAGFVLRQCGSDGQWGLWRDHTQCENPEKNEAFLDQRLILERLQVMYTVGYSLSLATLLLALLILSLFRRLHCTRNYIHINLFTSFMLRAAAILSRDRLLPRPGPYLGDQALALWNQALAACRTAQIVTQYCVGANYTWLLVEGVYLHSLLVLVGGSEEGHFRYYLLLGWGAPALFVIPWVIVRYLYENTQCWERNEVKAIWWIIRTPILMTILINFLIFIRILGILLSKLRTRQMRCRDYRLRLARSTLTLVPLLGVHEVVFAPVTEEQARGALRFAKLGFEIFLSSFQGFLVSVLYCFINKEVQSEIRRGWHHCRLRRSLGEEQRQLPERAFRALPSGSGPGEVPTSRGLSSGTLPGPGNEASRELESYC
# B1: Example 59 (peptide)
# peptide: Y[Aib]EGTFISDYSI[αMeL]LDKK([AEEA-AEEA-γGlu-C20 diacid])HQ[Aib]EFVE[4Pal]LLAAGPSSGAPPPS-NH2
# modifications: N-terminus assumed
# SMILES: CC[C@H](C)[C@H](NC(=O)[C@H](Cc1ccccc1)NC(=O)[C@@H](NC(=O)CNC(=O)[C@H](CCC(=O)O)NC(=O)C(C)(C)NC(=O)[C@@H](N)Cc1ccc(O)cc1)[C@@H](C)O)C(=O)N[C@@H](CO)C(=O)N[C@@H](CC(=O)O)C(=O)N[C@@H](Cc1ccc(O)cc1)C(=O)N[C@@H](CO)C(=O)N[C@H](C(=O)N[C@@](C)(CC(C)C)C(=O)N[C@@H](CC(C)C)C(=O)N[C@@H](CC(=O)O)C(=O)N[C@@H](CCCCN)C(=O)N[C@@H](CCCCNC(=O)COCCOCCNC(=O)COCCOCCNC(=O)CC[C@H](NC(=O)CCCCCCCCCCCCCCCCCCC(=O)O)C(=O)O)C(=O)N[C@@H](Cc1c[nH]cn1)C(=O)N[C@@H](CCC(N)=O)C(=O)NC(C)(C)C(=O)N[C@@H](CCC(=O)O)C(=O)N[C@@H](Cc1ccccc1)C(=O)N[C@H](C(=O)N[C@@H](CCC(=O)O)C(=O)N[C@@H](Cc1ccncc1)C(=O)N[C@@H](CC(C)C)C(=O)N[C@@H](CC(C)C)C(=O)N[C@@H](C)C(=O)N[C@@H](C)C(=O)NCC(=O)N1CCC[C@H]1C(=O)N[C@@H](CO)C(=O)N[C@@H](CO)C(=O)NCC(=O)N[C@@H](C)C(=O)N1CCC[C@H]1C(=O)N1CCC[C@H]1C(=O)N1CCC[C@H]1C(=O)N[C@@H](CO)C(N)=O)C(C)C)[C@@H](C)CC
# B2: Example 58 (peptide)
# peptide: Y[Aib]EGTFISDYSI[αMeL]LDKK([AEEA-AEEA-γGlu-C20 diacid])HQ[Aib]EFVE[4Pal]LLATGPSSGAPPPS-NH2
# modifications: N-terminus assumed
# SMILES: CC[C@H](C)[C@H](NC(=O)[C@H](Cc1ccccc1)NC(=O)[C@@H](NC(=O)CNC(=O)[C@H](CCC(=O)O)NC(=O)C(C)(C)NC(=O)[C@@H](N)Cc1ccc(O)cc1)[C@@H](C)O)C(=O)N[C@@H](CO)C(=O)N[C@@H](CC(=O)O)C(=O)N[C@@H](Cc1ccc(O)cc1)C(=O)N[C@@H](CO)C(=O)N[C@H](C(=O)N[C@@](C)(CC(C)C)C(=O)N[C@@H](CC(C)C)C(=O)N[C@@H](CC(=O)O)C(=O)N[C@@H](CCCCN)C(=O)N[C@@H](CCCCNC(=O)COCCOCCNC(=O)COCCOCCNC(=O)CC[C@H](NC(=O)CCCCCCCCCCCCCCCCCCC(=O)O)C(=O)O)C(=O)N[C@@H](Cc1c[nH]cn1)C(=O)N[C@@H](CCC(N)=O)C(=O)NC(C)(C)C(=O)N[C@@H](CCC(=O)O)C(=O)N[C@@H](Cc1ccccc1)C(=O)N[C@H](C(=O)N[C@@H](CCC(=O)O)C(=O)N[C@@H](Cc1ccncc1)C(=O)N[C@@H](CC(C)C)C(=O)N[C@@H](CC(C)C)C(=O)N[C@@H](C)C(=O)N[C@H](C(=O)NCC(=O)N1CCC[C@H]1C(=O)N[C@@H](CO)C(=O)N[C@@H](CO)C(=O)NCC(=O)N[C@@H](C)C(=O)N1CCC[C@H]1C(=O)N1CCC[C@H]1C(=O)N1CCC[C@H]1C(=O)N[C@@H](CO)C(N)=O)[C@@H](C)O)C(C)C)[C@@H](C)CC
# B3: Example 61 (peptide)
# peptide: Y[Aib]EGT[αMeF]ISDYSI[αMeL]LDKK([AEEA-AEEA-γGlu-C20 diacid])HQ[Aib]EFVE[4Pal]LLATGPSSGAPPPS-NH2
# modifications: N-terminus assumed
# SMILES: CC[C@H](C)[C@H](NC(=O)[C@H](CO)NC(=O)[C@H](Cc1ccc(O)cc1)NC(=O)[C@H](CC(=O)O)NC(=O)[C@H](CO)NC(=O)[C@@H](NC(=O)[C@](C)(Cc1ccccc1)NC(=O)[C@@H](NC(=O)CNC(=O)[C@H](CCC(=O)O)NC(=O)C(C)(C)NC(=O)[C@@H](N)Cc1ccc(O)cc1)[C@@H](C)O)[C@@H](C)CC)C(=O)N[C@@](C)(CC(C)C)C(=O)N[C@@H](CC(C)C)C(=O)N[C@@H](CC(=O)O)C(=O)N[C@@H](CCCCN)C(=O)N[C@@H](CCCCNC(=O)COCCOCCNC(=O)COCCOCCNC(=O)CC[C@H](NC(=O)CCCCCCCCCCCCCCCCCCC(=O)O)C(=O)O)C(=O)N[C@@H](Cc1c[nH]cn1)C(=O)N[C@@H](CCC(N)=O)C(=O)NC(C)(C)C(=O)N[C@@H](CCC(=O)O)C(=O)N[C@@H](Cc1ccccc1)C(=O)N[C@H](C(=O)N[C@@H](CCC(=O)O)C(=O)N[C@@H](Cc1ccncc1)C(=O)N[C@@H](CC(C)C)C(=O)N[C@@H](CC(C)C)C(=O)N[C@@H](C)C(=O)N[C@H](C(=O)NCC(=O)N1CCC[C@H]1C(=O)N[C@@H](CO)C(=O)N[C@@H](CO)C(=O)NCC(=O)N[C@@H](C)C(=O)N1CCC[C@H]1C(=O)N1CCC[C@H]1C(=O)N1CCC[C@H]1C(=O)N[C@@H](CO)C(N)=O)[C@@H](C)O)C(C)C
# B4: Example 60 (peptide)
# peptide: Y[Aib]EGT[αMeF]ISDYSI[αMeL]LDKK([AEEA-AEEA-γGlu-C20 diacid])HQ[Aib]EFVE[4Pal]LLAQGPSSGAPPPS-NH2
# modifications: N-terminus assumed
# SMILES: CC[C@H](C)[C@H](NC(=O)[C@H](CO)NC(=O)[C@H](Cc1ccc(O)cc1)NC(=O)[C@H](CC(=O)O)NC(=O)[C@H](CO)NC(=O)[C@@H](NC(=O)[C@](C)(Cc1ccccc1)NC(=O)[C@@H](NC(=O)CNC(=O)[C@H](CCC(=O)O)NC(=O)C(C)(C)NC(=O)[C@@H](N)Cc1ccc(O)cc1)[C@@H](C)O)[C@@H](C)CC)C(=O)N[C@@](C)(CC(C)C)C(=O)N[C@@H](CC(C)C)C(=O)N[C@@H](CC(=O)O)C(=O)N[C@@H](CCCCN)C(=O)N[C@@H](CCCCNC(=O)COCCOCCNC(=O)COCCOCCNC(=O)CC[C@H](NC(=O)CCCCCCCCCCCCCCCCCCC(=O)O)C(=O)O)C(=O)N[C@@H](Cc1c[nH]cn1)C(=O)N[C@@H](CCC(N)=O)C(=O)NC(C)(C)C(=O)N[C@@H](CCC(=O)O)C(=O)N[C@@H](Cc1ccccc1)C(=O)N[C@H](C(=O)N[C@@H](CCC(=O)O)C(=O)N[C@@H](Cc1ccncc1)C(=O)N[C@@H](CC(C)C)C(=O)N[C@@H](CC(C)C)C(=O)N[C@@H](C)C(=O)N[C@@H](CCC(N)=O)C(=O)NCC(=O)N1CCC[C@H]1C(=O)N[C@@H](CO)C(=O)N[C@@H](CO)C(=O)NCC(=O)N[C@@H](C)C(=O)N1CCC[C@H]1C(=O)N1CCC[C@H]1C(=O)N1CCC[C@H]1C(=O)N[C@@H](CO)C(N)=O)C(C)C
# Molecular target: human GLP-1 receptor (human, UniProt P43220 24-463)
# Experiment: cell-based or functional assay
row,Binder,hGLP1R cAMP Rel EC50 [nM]
1,B1,> 5000
2,B2,> 5000
3,B3,192
4,B4,71

# Molecular target: T1, human glucose-dependent insulinotropic …
# Experiment: cell-based or functional assay
row,Binder,hGIPR cAMP Rel EC50 [nM]
1,B1,0.0202
2,B2,0.0183
3,B3,0.0167
4,B4,0.0369

# Molecular target: human glucagon receptor (human, UniProt P47871 26-477)
# Experiment: cell-based or functional assay
# Chain of human glucagon receptor (P47871 26-477): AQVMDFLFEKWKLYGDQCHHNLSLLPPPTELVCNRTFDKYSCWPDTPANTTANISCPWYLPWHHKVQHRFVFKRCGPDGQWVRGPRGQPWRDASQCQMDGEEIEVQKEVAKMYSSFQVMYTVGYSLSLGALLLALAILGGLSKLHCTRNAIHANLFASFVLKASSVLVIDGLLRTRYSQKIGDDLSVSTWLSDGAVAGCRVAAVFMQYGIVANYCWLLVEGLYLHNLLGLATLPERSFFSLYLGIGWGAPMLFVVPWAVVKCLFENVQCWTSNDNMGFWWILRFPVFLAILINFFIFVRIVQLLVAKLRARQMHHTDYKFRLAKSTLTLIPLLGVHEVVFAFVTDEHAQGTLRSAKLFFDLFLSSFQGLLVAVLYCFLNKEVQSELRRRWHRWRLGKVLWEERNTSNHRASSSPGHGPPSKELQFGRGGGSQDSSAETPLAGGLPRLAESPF
row,Binder,hGcgR cAMP Rel EC50 [nM]
1,B1,> 5000
2,B2,> 5000
3,B3,> 5000
4,B4,> 5000
